Here are results for 136 substances from patent publication US20250011363A1, “OPTIMIZED SHORTENED PEPTIDE THAT BINDS TO ACETYLCHOLINE RECEPTOR, AND USE THEREOF” (SKINMED CO., LTD., priority 2021, published 2025).

For the assay, the target named is acetylcholine receptor (Homo sapiens, UniProt P02708). The assay is described as follows: SPR binding affinity (RU) of optimized 5mer/6mer/7mer peptides, Examples 6-7. The following applies: SPR, peptides tested at 10 μM. On the procedure:
Based on the frequencies of occurrence of the top 7 amino acids from Table 7 in Example 5, 600 peptides comprising these amino acids (top combinations) and those comprising the 13 less frequently occurring amino acids (bottom combinations) were synthesized for each series of 5mer, 6mer-1, and 6mer-2. The binding affinity of each sequence for the acetylcholine receptor was measured using Surface Plasmon Resonance (SPR) analysis method. The peptides were tested at a concentration of 10 μM. Additionally, the average binding affinities of the top and bottom combinations in each series are depicted in FIGS. 5-7.
Representative peptides identified in Example 6, two in each library, including 5mers (73, 311) and 6mers-1 (43, 210) and 6mers-2 (136, 233), were compared with the pre-optimized 6mer, 5mer-ND, and Synake.

Setting [1] is: 5mer Top sequence (top combinations).

Chain of acetylcholine receptor (P02708 21-457): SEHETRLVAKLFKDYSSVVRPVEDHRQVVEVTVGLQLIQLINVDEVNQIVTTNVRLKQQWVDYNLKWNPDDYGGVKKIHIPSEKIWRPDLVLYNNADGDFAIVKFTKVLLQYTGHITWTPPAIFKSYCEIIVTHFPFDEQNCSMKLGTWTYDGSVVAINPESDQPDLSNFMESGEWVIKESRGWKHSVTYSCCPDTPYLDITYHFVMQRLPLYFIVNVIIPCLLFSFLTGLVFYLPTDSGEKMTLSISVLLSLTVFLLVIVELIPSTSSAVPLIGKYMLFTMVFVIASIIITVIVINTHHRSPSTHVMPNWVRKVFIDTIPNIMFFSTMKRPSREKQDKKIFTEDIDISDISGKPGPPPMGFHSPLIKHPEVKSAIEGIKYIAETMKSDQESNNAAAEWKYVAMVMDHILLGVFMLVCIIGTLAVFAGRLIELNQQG

On to 5mer-414 (KVRCK), for which the Binding affinity (5mer Top sequence) is 71 Ru.
As for 5mer-415 (KVFLR), the Binding affinity (5mer Top sequence) is reported as 77 Ru.
The same measure, in the same setting: the figure for 5mer-416 (KLYLR) is 67 Ru; for 5mer-417 (KWLQK) it is 65 Ru.
Take 5mer-418 (RWRTR): the Binding affinity (5mer Top sequence) is given as 53 Ru.
With 5mer-419 (RVYTR), the Binding affinity (5mer Top sequence) was found to be 67 Ru.
On the same count and under the same terms, the figure for 5mer-420 (KLFCR) is 84 Ru.
The same measure, in the same setting: the figure for 5mer-421 (RVVYK) is 68 Ru; for 5mer-422 (KWICK) it is 87 Ru; for 5mer-423 (RRQLK) it is 60 Ru.
Still for that read-out and setting: the result for 5mer-424 (RVYLK) reads 87 Ru; that for 5mer-425 (RGFYR), 80 Ru.
For the substance 5mer-426 (RRVSR), for the setting “5mer Top sequence”, the Binding affinity is on record as 57 Ru.
For 5mer-427 (RGLYR), for the setting “5mer Top sequence”, the Binding affinity is 87 Ru.
For the substance 5mer-428 (RQFLK), the Binding affinity (5mer Top sequence) is reported as 86 Ru.
On the same count and under the same terms, the figure for 5mer-429 (KSQYK) is 63 Ru; for 5mer-430 (KWRTK) it is 80 Ru.
In the case of 5mer-431 (KVQLK), the Binding affinity (5mer Top sequence) is recorded as 81 Ru.
Turning to 5mer-432 (RQVRR), the Binding affinity (5mer Top sequence) was 52 Ru.
Still for that read-out and setting: the result for 5mer-433 (KWRCR) reads 73 Ru.
The same measure, in the same setting: the figure for 5mer-434 (RVLQK) is 74 Ru; for 5mer-435 (KLRQR) it is 69 Ru.
Same read-out and setting: the result for 5mer-436 (RVFYK) reads 60 Ru; that for 5mer-437 (RVRLR), 50 Ru.
Turning to 5mer-438 (RVRSR), for the setting “5mer Top sequence”, the Binding affinity turned out to be 76 Ru.
As to 5mer-439 (KRVTR), the Binding affinity (5mer Top sequence) turned out to be 65 Ru.
Same read-out and setting: the figure for 5mer-440 (RQVTK) is 57 Ru.
Still for that read-out and setting: the result for 5mer-441 (KLIRK) reads 53 Ru; that for 5mer-442 (KVRLR), 61 Ru.
Still for that read-out and setting: the figure for 5mer-443 (RGFTK) is 80 Ru.
As for 5mer-444 (KQQYR), the Binding affinity (5mer Top sequence) is 65 Ru.
The same measure, in the same setting: the figure for 5mer-445 (RLFTR) is 77 Ru; for 5mer-446 (RGLQK) it is 53 Ru; for 5mer-447 (KGYYK) it is 76 Ru.
5mer-448 (RQIRK): the Binding affinity (5mer Top sequence) was 74 Ru.
On to 5mer-449 (KGLYR), for which the Binding affinity (5mer Top sequence) was determined as 65 Ru.
Same read-out and setting: the figure for 5mer-450 (RVIQK) is 78 Ru.
On the same count and under the same terms, the figure for 5mer-451 (RQVLK) is 53 Ru; for 5mer-452 (RGVSK) it is 82 Ru.
The same measure, in the same setting: the result for 5mer-453 (KGVCR) reads 68 Ru; that for 5mer-454 (RQVLR), 77 Ru.
Take 5mer-455 (RWLYK): the Binding affinity (5mer Top sequence) is reported as 61 Ru.
With 5mer-456 (RLVCK), the Binding affinity (5mer Top sequence) is 52 Ru.
Take 5mer-457 (RGQYK): the Binding affinity (5mer Top sequence) was 59 Ru.
Turning to 5mer-458 (RRFLK), the Binding affinity (5mer Top sequence) is recorded as 65 Ru.
Same read-out and setting: the figure for 5mer-459 (RSQLR) is 76 Ru; for 5mer-460 (RLQQR) it is 74 Ru; for 5mer-461 (KQLLK) it is 74 Ru.
5mer-462 (RWQSK): under “5mer Top sequence”, the Binding affinity is recorded as 69 Ru.
The same measure, in the same setting: the result for 5mer-463 (KWYTK) reads 52 Ru.
As for 5mer-464 (RGVTR), the Binding affinity (5mer Top sequence) turned out to be 57 Ru.
On the same count and under the same terms, the result for 5mer-465 (RWFRK) reads 57 Ru; that for 5mer-466 (RRVRK), 53 Ru.
Same read-out and setting: the figure for 5mer-467 (RRIYR) is 83 Ru.
Same read-out and setting: the figure for 5mer-468 (RWQCK) is 54 Ru.
In the case of 5mer-469 (KSRRR), the Binding affinity (5mer Top sequence) was 69 Ru.
Still for that read-out and setting: the result for 5mer-470 (KQRSK) reads 57 Ru; that for 5mer-471 (RGYLR), 69 Ru; that for 5mer-472 (RRYRK), 55 Ru.
Turning to 5mer-473 (RLVQR), the Binding affinity (5mer Top sequence) is recorded as 75 Ru.
For the substance 5mer-474 (RQFLR), the Binding affinity (5mer Top sequence) amounted to 80 Ru.
On to 5mer-475 (RRFCK), for which, under “5mer Top sequence”, the Binding affinity was found to be 56 Ru.
On the same count and under the same terms, the result for 5mer-476 (RSICK) reads 70 Ru; that for 5mer-477 (KGYSR), 58 Ru.
For the substance 5mer-478 (RVQTK), the Binding affinity (5mer Top sequence) came out at 75 Ru.
On the same count and under the same terms, the figure for 5mer-479 (RQYYK) is 70 Ru.
Still for that read-out and setting: the figure for 5mer-480 (RWYLR) is 75 Ru; for 5mer-481 (KSYCK) it is 78 Ru; for 5mer-482 (KQFCK) it is 75 Ru.
Same read-out and setting: the figure for 5mer-483 (RSISR) is 51 Ru; for 5mer-484 (RSFQK) it is 51 Ru; for 5mer-485 (KRQRK) it is 58 Ru.
5mer-486 (RWLQR): the Binding affinity (5mer Top sequence) came to 53 Ru.
On the same count and under the same terms, the figure for 5mer-487 (RLVTK) is 62 Ru.
Take 5mer-488 (KVRSR): the Binding affinity (5mer Top sequence) stood at 58 Ru.
Still for that read-out and setting: the figure for 5mer-489 (KSYSR) is 63 Ru.
The same measure, in the same setting: the figure for 5mer-490 (RWLLK) is 60 Ru; for 5mer-491 (KQIRR) it is 81 Ru; for 5mer-492 (RVVLR) it is 80 Ru.
Still for that read-out and setting: the figure for 5mer-493 (KSIRR) is 57 Ru.
For the substance 5mer-494 (RGFCK), the Binding affinity (5mer Top sequence) is listed as 54 Ru.
The same measure, in the same setting: the figure for 5mer-495 (KVVTK) is 52 Ru; for 5mer-496 (KGIQK) it is 81 Ru; for 5mer-497 (KRRCR) it is 76 Ru.
The same measure, in the same setting: the figure for 5mer-498 (KLISK) is 53 Ru; for 5mer-499 (RVLTK) it is 76 Ru; for 5mer-500 (KSLQK) it is 63 Ru.
On the same count and under the same terms, the result for 5mer-501 (KLQRK) reads 78 Ru; that for 5mer-502 (RRISR), 84 Ru; that for 5mer-503 (KRVSK), 61 Ru.
As for 5mer-504 (KQIQR), the Binding affinity (5mer Top sequence) is listed as 72 Ru.
As to 5mer-505 (RQIYR), for the setting “5mer Top sequence”, the Binding affinity was found to be 71 Ru.
Same read-out and setting: the figure for 5mer-506 (RGRLR) is 51 Ru; for 5mer-507 (KWVQK) it is 84 Ru.
On the same count and under the same terms, the result for 5mer-508 (KGLQK) reads 67 Ru; that for 5mer-509 (RVQRK), 61 Ru.
On to 5mer-510 (RQLSK), for which, under “5mer Top sequence”, the Binding affinity amounted to 71 Ru.
For 5mer-511 (KSLSR), under “5mer Top sequence”, the Binding affinity was determined as 56 Ru.
Consider 5mer-512 (RLYLK), for which, under setting [1], the Binding affinity was 70 Ru.
On the same count and under the same terms, the result for 5mer-513 (RWYYK) reads 83 Ru; that for 5mer-514 (KLLLK), 52 Ru.
On the same count and under the same terms, the result for 5mer-515 (RGQRK) reads 56 Ru; that for 5mer-516 (KWQTR), 83 Ru; that for 5mer-517 (KGYTR), 70 Ru.
Still for that read-out and setting: the result for 5mer-518 (RVYYR) reads 87 Ru.
As for 5mer-519 (RLYSK), the Binding affinity under setting [1] was determined as 72 Ru.
Still for that read-out and setting: the figure for 5mer-520 (RVLLK) is 86 Ru; for 5mer-521 (KRFRK) it is 78 Ru.
The same measure, in the same setting: the result for 5mer-522 (RLVYR) reads 78 Ru; that for 5mer-523 (KQFQK), 84 Ru.
On the same count and under the same terms, the result for 5mer-524 (RRICR) reads 83 Ru.
Consider 5mer-525 (KQRYK), for which, under setting [1], the Binding affinity turned out to be 51 Ru.
On the same count and under the same terms, the result for 5mer-526 (KQFSR) reads 54 Ru; that for 5mer-527 (KSVQR), 70 Ru; that for 5mer-528 (RVLLR), 50 Ru.
Regarding 5mer-529 (RVQSR), the Binding affinity under setting [1] came out at 84 Ru.
Same read-out and setting: the result for 5mer-530 (RWRRR) reads 80 Ru.
The same measure, in the same setting: the figure for 5mer-531 (KRQSR) is 65 Ru; for 5mer-532 (KQICK) it is 75 Ru.
Regarding 5mer-533 (RLVYK), under setting [1], the Binding affinity was found to be 84 Ru.
As for 5mer-534 (RRQLR), under setting [1], the Binding affinity was found to be 50 Ru.
Still for that read-out and setting: the result for 5mer-535 (KSLLR) reads 70 Ru.
Same read-out and setting: the result for 5mer-536 (RLITK) reads 78 Ru; that for 5mer-537 (RLRLR), 59 Ru.
The same measure, in the same setting: the figure for 5mer-538 (KQQQR) is 72 Ru; for 5mer-539 (RVVTR) it is 70 Ru; for 5mer-540 (RQFYR) it is 74 Ru.
Consider 5mer-541 (KVFLK), for which the Binding affinity under setting [1] amounted to 80 Ru.
The same measure, in the same setting: the result for 5mer-542 (KRYTR) reads 85 Ru; that for 5mer-543 (RLRLK), 65 Ru; that for 5mer-544 (RLQLR), 63 Ru.
Turning to 5mer-545 (KGQYR), under setting [1], the Binding affinity came out at 80 Ru.
Same read-out and setting: the result for 5mer-546 (KVVLK) reads 65 Ru; that for 5mer-547 (KQVTK), 77 Ru.
Regarding 5mer-548 (KWLCK), under setting [1], the Binding affinity was 60 Ru.
Regarding 5mer-549 (KWITK), the Binding affinity under setting [1] is listed as 78 Ru.
